Legend:
Assay in all cases: single-particle TIRF colocalisation with photobleaching step counting
[1] = target: mTFP-K-K-K-K, linked tetramer of wild type Kir2.1 subunits
[2] = target: mTFP-K-Q, dimer of a wild type Kir2.1 subunit linked to a Kir2.1-K49Q subunit
[3] = target: mTFP-K-Q-K-Q tetramer of concatenated Kir2.1 subunits
[4] = target: mTFP-Q-K-K-Q tetramer of concatenated Kir2.1 subunits
[5] = target: tetrameric Kir2.1 construct with three SUMO1 binding sites
[6] = target: mTFP-Q-K-Q-Q tetramer of concatenated Kir2.1 subunits
[7] = target: mTFP-K-K, dimer of linked wild type Kir2.1 subunits
[8] = target: the molecule itself

Molecule: mCherry-SUMO1 (from UniProt P63165-1 1-97) (natural protein)
- stoichiometry N (SUMO1 monomers per channel) [1]: 2
- stoichiometry N (SUMO1 monomers per channel) [2]: 2
- stoichiometry N (SUMO1 monomers per channel) [3]: 2
- stoichiometry N (SUMO1 monomers per channel) [4]: 1
- stoichiometry N (SUMO1 monomers per channel) [5]: 2
- stoichiometry N (SUMO1 monomers per channel) [6]: 1
- stoichiometry N (SUMO1 monomers per channel) [7]: 2

Molecule: mTFP-K-K, dimer of linked wild type Kir2.1 subunits
- stoichiometry N [7]: 2

Molecule: mTFP-K-Q, dimer of a wild type Kir2.1 subunit linked to a Kir2.1-K49Q subunit
- stoichiometry N [2]: 2

B1: mTFP1-tagged Kir2.1 (natural protein)
chain: MGSVRTNRYSIVSSEEDGMKLATMAVANGFGNGKSKVHTRQQCRSRFVKKDGHCNVQFINVGEKGQRYLADIFTTCVDIRWRWMLVIFCLAFVLSWLFFGCVFWLIALLHGDLDASKESKACVSEVNSFTAAFLFSIETQTTIGYGFRCVTDECPIAVFMVVFQSIVGCIIDAFIIGAVMAKMAKPKKRNETLVFSHNAVIAMRDGKLCLMWRVGNLRKSHLVEAHVRAQLLKSRITSEGEYIPLDQIDINVGFDSGIDRIFLVSPITIVHEIDEDSPLYDLSKQDIDNADFEIVVILEGMVEATAMTTQCRSSYLANEILWGHRYEPVLFEEKHCYKVDYSRFHKTYEVPNTPLCSARDLAEKKYILSNANSFCYENEVALTSKEEEDSENGVPESTSTDSPPGIDLHNQASVPLEPRPLRRESEI
- stoichiometry N [8]: 4

Source: doi:10.1101/2025.04.25.650734 (bioRxiv, 2025)
